According to the DeepSol protein solubility set:

assay: soluble on expression in E. coli; label from the status in PepcDB or PDB records

| Sequence | soluble on expression in E. coli |
| --- | --- |
| MITQHLIPDFIAKMTGSTEVQKSAGMKKSSSSQFKDTLDLAVEKSYAWQSGTKSYEYAMDIKDRPYQRLQNKNILDSAETKERRPDRTKPFNKASNQITSRASDKAERTASPEEENIEGENDRKLKGKAMEKALAEVLGISVEELEKLMAQLGINFENADGETGIQEAADKISAYLGLNQDEKMALAEMMSLVQKQVEQAFKDVQSAYDAARYDMKDENEAYGVELFHAETETAVEDTSALRNDLDVSKVSQEVKNKLDEETDGFLKQIAAKVVEVVQKDESTAGLKTVSVNGENIEEIGLKTDVEDIGNVREAKYSSDEKDSADNSGNAGSETSSMASRGVEAESAAKNSNNIQFEAVSNLTVQRATGQAEPDKTRNIIPVTNKEIVEQVVEKAKVVLSGDKSEMVIDLKPEHLGKLELKIVTERGMVVAKFVAENEQVKAALESNMNMLKESLEKQGFLVEGFSVTVGDNKRRENSRDKTNQGTANQRISGEKLQVSDMTGVERMQRIHENIDPYSYGSSSIDLTA | soluble |
| MAKARAIVITGNGTNCEMEAAHACRLGGFDETVIAHISDILTGEIRLDDFHFLNLTGGFLDGDDLGSAKAQANRFRYARVDDLEEHLIDQIIRFIDAGKLILGVCNGFQLMTKMGLLPAVDGAYLAQTATLTFNACGRFQDRWVYLKVDQASPSIYTKGVETGLYLPIRHGEGKFVVDSPATLAAIEAKHLAVFTYSDETYSAPTMEFPLNPNGSVNAIAAVCNESGRLMGMMPHPEAFLHRTNHPRWTREDLPEEGDGLVLFRNAADYAKANLLLEHHHHHH | not soluble |
| MAHHHHHHMEPFTWLPAERYFHPLLNSIGAYQRYTYSLRAVCDAQRQKLLPGGDIEQNPGPIAVLQMNVSCLTPSKLATLMAQGADIIAIQETWKSSEQIASMHTGDHVLHAQSRIGKGSGVAVLVRKTLRSKRVPLTIPQHDTSLEVVVVQVALDQNRDLIVASTYMRPPPQVTQSFRRLVNCLPASSPLLLCGDFNMHHPQWEPFLESSPSEVAAEFLELCTDAGLTLVNTPGDITYARGTRERSCIDLTWSKHLTVSDCSASVSPLSDHYMLTFTLHQAFMDTIPSAPPSAPRTFYS | not soluble |
| SANSGEGKVVCVTGASGYIASWLVKFLLSRGYTVKASVRDPSDPKKTQHLVSLEGAKERLHLFKADLLEQGSFDSAIDGCHGVFHTASPFFNDAKDPQAELIDPAVKGTLNVLNSCAKASSVKRVVVTSSMAAVGYNGKPRTPDVTVDETWFSDPELCEASKMWYVLSKTLAEDAAWKLAKEKGLDIVTINPAMVIGPLLQPTLNTSAAAILNLINGAKTFPNLSFGWVNVKDVANAHIQAFEVPSANGRYCLVERVVHHSEIVNILRELYPNLPLPERCVDENPYVPTYQVSKDKTRSLGIDYIPLKVSIKETVESLKEKGFAQF | soluble |
| MRGSHHHHHHGSDLGKKLLEAARAGQDDEVRILMANGADVNAEDTYGDTPLHLAARVGHLEIVEVLLKNGADVNALDFSGSTPLHLAAKRGHLEIVEVLLKYGADVNADDTIGSTPLHLAADTGHLEIVEVLLKYGADVNAQDKFGKTAFDISIDNGNEDLAEILQ | soluble |
| MSLIGKHFIITGATSGLGFAITNELLQRGAHVTILARNIDKFNRIKENYFKPEHINVIKCDLMQRKDIESLQKFLNTPINGFIYSSGVGYFKSISEHSTREVVETYEVNLTNFNLLYKVIQPQLVKAAYIVGISSQAALVSQANAAHYGASKAGFSAVLNALRLEQPELKVLNVQPGPIDTPFQKNADPTLKYFKNYRHMMIQPQQLAKQIVEGIILNKIEINQPSWMQEGHHHHHH | not soluble |
| MGHHHHHHSHMFDAAFDPVLTVNSGDSVTVECVSGGVEVMPPAESPYAIPSALQAIHDSNPPRIGPHILTGPIAIAGAEPGDILEVRIEAIEPNNDWGYCAVRPLAGTLPEDFPERYVSHIAVDAQRGVCKPEWGPELPLAPFFGTMGVAPPAKYGRLSSREPREHGGNMDNKELVAGSTLYLPVWVPGANFSVGDGHGRQGDGEVCVNALEMGLTGTFTFVLHKKANGAADIAPFAWPRAETPTHYVLMGFHEDLDLAMKQALRQTIDFITARSNLTRVQAYQFCSLAVDFRVTQTVNGEKGVHALLSKGLLF | not soluble |
| MEKVLDLDVQVKANNNSNDSAGDERITSHSLCTPGCAKTGSFNSFCC | not soluble |
| MGSDKIHHHHHHMRNASIEQYDATPRAVVAMGTDYPDGYLLPRHRHRRAQLLYGASGVMQVRTGDAGWVVPPQRAVWIPPGVEHEVRMLGVSTRSLYIEPGSAMAMPAHCQVLAVSPLLRQLLLAAVDMPLEYDTEGRDGALATLLLHELAAAETLPLHVPLPPEPRWLALCEAFLVEPDIRASAERWAGLLHTSLRSFNRTFRRYTGLSFGAWKQRACVVQALARLAGGETVTAIALDCGYQSPAAFSTMFRRVLGQPPSAFQAGALRSPGGP | not soluble |
| MGSDKIHHHHHHMASKNFVLDTNVLIENPRCIAALRNGEENRIHVPWTVLAELDGLQRDPRIGHVVGQAINALVGDEAVTFLPPLADDVAPSPGTIGDDRILGEIASSALESPILITNDRILQLKARVRGIPVEGYRDSVPFQSESQRYTGFVMDGEDPVPNCFRWENGQPVFHGPDGPRAVTWQHEVWKVAPRSVHQNLAFELMLHPGIDIVSIQSEAGYGKTFLALAAALHLVFERKDTPYRKIYLVKPVVEIGARMGFLPGDIEEKMHPYIRYVQDLLLKLHDLRPANRVFQSVEAGNMKLNPKRFEIQPIAYVRGMNLENAVVIIDEMQNLSRNEARALLTRMGEGVKCFCLGDTRQVDNQYLNESNNGLNWVVKKLKGFRNYAHIVLKGERSRGPITDIVLRSRL | not soluble |
| MKLIVVTTPTFFVEEDKIITALFEEGLDILHLRKPETPAMYSERLLTLIPEKYHRRIVTHEHFYLKEEFNLMGIHLNARNPSEPHDYAGHVSCSCHSVEEVKNRKHFYDYVFMSPIYDSISKVNYYSTYTAEELREAQKAKIIDSKVMALGGINEDNLLEIKDFGFGGAVVLGDLWNKFDACLDQNYLAVIEHFKKLKKLADLEHHHHHH | soluble |
| MGSDKIHHHHHHVAKAAQRKLLLSELQLGMRVKLPLSWTNHPFLFNRVDINSLAQIEMIRGLGVPYVFLLSEVNTKSEQPSTDNKIIEVQEQPKTERDIKSATRKAMRLSQKRFLEGVNQCRNMFGKIVSDPEGAYRQSATLVEEMLSHLQEVEQPFLTLVGMDENEVSVTQHGVSVAVIAMMIGHALDLTPRELRDIALGSLLHDIGKLKVPENIRRKLSALTTNEANYLQMHPNFGYDMLNRSGLFPKEVLNIVLHHHEFIDGSGFPDGLTGNKIPIVTQIVALANDFDQHLSGQQASSPQVALGYLFKNRAAKHAESLISVLVKILGIYPPGTIVKLSDDSVAKVIMTTKEVAQPQVWACKPDGSEASLRFLSEEGVTVQKALKAEELTEGAIRTLQVDKGVSFYFSALQA | not soluble |
| MAMSRQCTHYGRWPQHGFTSLKKLTPQSVTSRIQPGTDVIVCAEMDEHWGYFCAKKRQRWLVDTYDKIRRTDVDHVFGERTLATLERLLSLLSAFEVAVWMTDGWPLYESRLKGKLHVISKRYTQRIERHNLNLRQHLARLVRKSLSFSKSVELHSGIILEHHHHHH | not soluble |
| MSFVHQKCRNIDTVYLGSNIHRLNVPDNLVKWSQEWSGYNPPAHTDPKVDGAVWADPEIDEKTFQPSWNAIDGKINRVSYVCQYSFDPVTLRPLNPIGRTGLSGRGLLGRWGPNHAADPIVSRTNDNGDLEFVAVQRHDNGEWAIPGGMVDAGEHVSQTLRREFAEEAMHGIVDSENLDELWNNGKELYRGYVDDPRNTDNAWMETVVFNFHDSKGLLKNVALQAGDDAKALRWIAVNSNEPLYASHSHFIDLLKESHSH | not soluble |
| MSLVKTYAFGFPKLGEKREFKRLLENYWKGKISQEELIKGMEELNLWRANLYRENVEIIPSNELSYYDFMLDTTVMVGAIPSRFGEYRGLDTYFEMARGKNALELTKWFNTNYHYLVPELEGENFKLLINRPLEDYKFFKEKGINTVPHVIGLFTFLKLSKAPKRVEEEGLPVIILEKLDTKERLEKFTKALLPVYKELLESLKNEGVNRVHFEEPALVTDLEDYDWEILNEIYSELSKVGVDLGILTYYDSVSDYDKFVNLPVKALHFDLVSNEENLKNIKEKGFPEDKELIAGIINGRQPWRANLREKVKLLEELLKVSANLVVSNSCPLYHLPVTVEPEDELPEGLKERLSFAKEKLREIRLIKEALEGKEEALREVESSEKVMTAVFAQNPEVRRRLASLSEKDFQRELPYKERDKIQRDILKLPLFPTTTIGSFPQTEDVRKMRTAYRTGKISEEEYKNFIKQKIKYAIEVQEDIGLDVLVHGEFERSDMVEYFAIKLDGIATTKHGWVLSYGSRVYRPPIIYGDVSRPAPMTLEEITYAQSLTNKPVKGMLTGPVTILNWSYYREDVPKREIAYQIALALLDEVKDLENAGIKVIQIDEPAFREGAPLKKRDWPEYFDWAVKAFRLASRAKPETQIHTHMCYSEFNEIIEYIYQMDFDVISIEASRSKGEIIEVFEKFKGWDRQIGIGVYDIHSPAIPTKEEMKAIMLRAMKVLPKELLWVNPDCGLKTRRWEEVIPALRNMVDMAKELREEVGVKVEGHHHHHH | soluble |
| MSAEPHIVIIGGGFSGAAVAIELLRLAPNGVRVTLLEPRQSPGAGVAYSTAEPTHRINVPAARMQLAGDEEGAFDHWYRHQPAFAVDVQALRPDGSVYPQRGQFGRYVAQRFADAAASSGGRLRHLRDRALAFHQGTVTTDGGLQFKADLLVLAISHPPPSLPPQAEAWRHHPALIANPWQPGALDAIAPHARVAVMGTGLTMADTVVTLDRLGH | not soluble |
| QQKILENIRGIGTNTMTIFNGNGFGDRRSRHIQNLKISDANTLSKQSYIQSVTPNTSSSGILVVGNKSFTSANLYGIGEQYFDVEGLKLKQGRLLTEDDVDQSNQVVVLDESAKKAIFANENPLGKTVIFNKRPFRVIGVVSDQQLGGFPGNSLNLYSPYSTVLNKITGGSRIGSITVKISDDVNSTVAEKSLTELLKSLHGKKDFFIMNSDTIKQTIENTTGTMK | soluble |
| GSHMDKTFCVVVQNRIKEGYRRAGFSFHLGDNSLAAVSESQLAQLKADPRLVVQITETGSQEGGEGLSKEPAGSDEQKQLRADPPSTDLNTFTVEQLKAQLTERGITFKQSATKAELIALFAPADGEKSEA | soluble |
| MGSDKIHHHHHHMKCSKCSAEAIYYAKYNGLYLCRDHFNEMIEGRVKKEIRKQVEFHGDDVTISVALSGGKDSSVTLFLLHKILGNRKNMKIKAFTVDEGIDGYRPSGLESAKRLCTSLGIDHETISFYDSYGLTLDSIVKTNPVKIPCAYCGPLRRKLINEMADKQDADYVALGLNLDDYSQSILMNVAKGDFDRFIRMSPQTDRKVGLVRRIAPLRTILEKEVVLYAVTNDIPFDSSWCPYYSRAQRNVFREVVNKLSEENPSTKFAILKFFDRVRENITTGHEEVKLKRCKICGAPTERDVCTACSSLQEVNEMMAEH | not soluble |
| GPGSMEEFYGMEVFAGKTAKPNISADRVLHVTQVALPPNASHAITLLVKTEGKSFVLATLDPQQALFHVSVDMLFSGKQKLAFTCEGATGAVHIIGYTQLAEEEEDAIDDEDDDDMMDDEDVA | soluble |
| MNDPADTLRATLADLVDGLPPRQAARAVERLIANYRGDTPTDAPILRDRADVVAYAAYRMPATFAAVRSALTAFAEAVPDWVPGSHLDVGGGTGAATWAVSDTWGGTRPVTVLDWAEPALVLGQEIAASLPALREARWRRSRIGAALDIESVELVTVSYVLNELTGSDRAALVDAAAGAARAVVIVEAGTPAGYARVVEARDRLIAAGFRVAAPCPHSAACPIEAGTDWCHFAARVSRSSLHRQVKSGSLAYEDEKFSYVAATRLPVEPAASRVVRRPQIRKGQVLLDLCASDERLRRSTVTKRHGDLYKAARDAAWGDPWPPGEDLEHHHHHH | soluble |
| MHGTCLSGLYPEPFTHNSHDYPHFNIYISFGGPKYCITALNTYVIPLLHHILTTQFIHTYFNIPTKSPPKSPKHKNYLSFNFTK | soluble |
